Measurements: patent US20240158512A1 (TRUEBINDING, published 2024)
Where “and” joins values, the source holds several entries; their conditions need not be identical. Equal values may be shown once. One block for each binder: values may come before it.

How the values were obtained:
Galectin-3 [1] = target: T1, Galectin-3 (UniProt P17931 1-250, limits assumed); assay: BLI; after 25 C for 14 days
T1 construct: Target of the anti-Gal3 antibody TB006; also called Gal3; GAL3

Galectin-3 [2] = target: T1, Galectin-3; assay: ELISA blocking assay; TB006 diluted to 0.31 mg/mL in 0.9% NaCl, 25 C, 0.5 h; blocked partner not named
Galectin-3 [3] = target: T1, Galectin-3; assay: BLI; after 40 C for 14 days
Galectin-3 [4] = target: T1, Galectin-3; assay: BLI; after 4 C for 9 months
Galectin-3 [5] = target: T1, Galectin-3; assay: BLI; after -80 C for 18 months
Galectin-3 [6] = target: T1, Galectin-3; assay: BLI; after 25 C for 9 months
Galectin-3 [7] = target: T1, Galectin-3; assay: BLI; after 40 C for 21 days
Galectin-3 [8] = target: T1, Galectin-3; assay: BLI (Binding Activity); accelerated stability 25 C/60% RH, 3 months
Galectin-3 [9] = target: T1, Galectin-3; assay: BLI; after 5 freeze/thaws, 50% vol. of container
Galectin-3 [10] = target: T1, Galectin-3; assay: BLI; after 25 C for 3 months
Galectin-3 [11] = target: T1, Galectin-3; assay: BLI; after 4 C for 12 months
Galectin-3 [12] = target: T1, Galectin-3; assay: BLI; after 25 C for 6 months
Galectin-3 [13] = target: T1, Galectin-3; assay: BLI; after 4 C for 3 months
Galectin-3 [14] = target: T1, Galectin-3; assay: BLI; after -80 C for 1 month
Galectin-3 [15] = target: T1, Galectin-3; assay: BLI; after 5 freeze/thaws, 25% vol. of container
Galectin-3 [16] = target: T1, Galectin-3; assay: BLI; after 5 freeze/thaws, 100% vol. of container
Galectin-3 [17] = target: T1, Galectin-3; assay: BLI (Binding Activity); long-term stability 5 C, 1 month
Galectin-3 [18] = target: T1, Galectin-3; assay: ELISA blocking assay; TB006 diluted to 0.31 mg/mL in 0.9% NaCl, 25 C, 1 h; blocked partner not named
Galectin-3 [19] = target: T1, Galectin-3; assay: BLI; after 40 C for 7 days
Galectin-3 [20] = target: T1, Galectin-3; assay: ELISA (Biological Activity); long-term stability 5 C, 0 months
Galectin-3 (Gal3) [21] = target: T2, Galectin-3 (Gal3) (UniProt P17931 1-250, limits assumed); assay: BLI; 50 mg/mL DS after 3 freeze/thaws
T2 construct: Target of TB006
T2 sequence (P17931 whole entry): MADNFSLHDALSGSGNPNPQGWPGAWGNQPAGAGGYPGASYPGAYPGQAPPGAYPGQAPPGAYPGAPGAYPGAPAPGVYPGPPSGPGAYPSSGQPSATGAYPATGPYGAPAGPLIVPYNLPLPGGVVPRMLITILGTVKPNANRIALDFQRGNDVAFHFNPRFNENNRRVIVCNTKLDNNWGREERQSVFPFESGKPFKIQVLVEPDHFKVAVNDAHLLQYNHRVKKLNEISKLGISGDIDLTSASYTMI

Galectin-3 (Gal3) [22] = target: T2, Galectin-3 (Gal3); assay: BLI; 50 mg/mL DS after 40 C for 7 days
Galectin-3 (Gal3) [23] = target: T2, Galectin-3 (Gal3); assay: BLI; 20 mg/mL DS after 4 C for 9 months
How it was run: (§1)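 Each sample was taken either at time zero or after a stress step: shear from agitation, repeated freeze-thaw cycles, or storage at set temperatures, among them 40° C and cryogenic storage. The dissociation constant (Kd) for Galectin-3 binding came from biolayer interferometry.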

Galectin-3 (Gal3) [24] = target: T2, Galectin-3 (Gal3); assay: BLI; 50 mg/mL DS after 5 freeze/thaws
Galectin-3 (Gal3) [25] = target: T2, Galectin-3 (Gal3); assay: BLI; 20 mg/mL DS after -80 C for 1 month
How it was run: as §1

Galectin-3 (Gal3) [26] = target: T2, Galectin-3 (Gal3); assay: BLI; 20 mg/mL DS after 25 C for 1 month
How it was run: as §1

Galectin-3 (Gal3) [27] = target: T2, Galectin-3 (Gal3); assay: BLI; 50 mg/mL DS after 40 C for 3 months
Galectin-3 (Gal3) [28] = target: T2, Galectin-3 (Gal3); assay: BLI; 50 mg/mL DS after 4 C for 1 month
Galectin-3 (Gal3) [29] = target: T2, Galectin-3 (Gal3); assay: BLI; 50 mg/mL DS after -80 C for 9 months
Galectin-3 (Gal3) [30] = target: T2, Galectin-3 (Gal3); assay: BLI; 20 mg/mL DS after 4 C for 1 month
Galectin-3 (Gal3) [31] = target: T2, Galectin-3 (Gal3); assay: BLI; 50 mg/mL DS after 25 C for 14 days
Galectin-3 (Gal3) [32] = target: T2, Galectin-3 (Gal3); assay: BLI; 50 mg/mL DS after 40 C for 14 days
Galectin-3 (Gal3) [33] = target: T2, Galectin-3 (Gal3); assay: BLI; 20 mg/mL DS after 4 C for 12 months
How it was run: as §1

T1 sequence (P17931 whole entry): as above

Kd (Galectin-3 [1]): 2.6 nM
IC50 (Galectin-3 [2]): 1.66 µg/mL and 1.34 µg/mL
Kd (Galectin-3 [3]): 2.5 nM
Kd (Galectin-3 [4]): 2.2 nM
Kd (Galectin-3 [5]): 2 nM
Kd (Galectin-3 [6]): 2.8 nM
Kd (Galectin-3 [7]): 2.8 nM
Kd (Galectin-3 [8]): 3.1 nM
Kd (Galectin-3 [9]): 3.1 nM
Kd (Galectin-3 [10]): 3.3 nM
Kd (Galectin-3 [11]): 3.9 nM
Kd (Galectin-3 [12]): 2.6 nM
Kd (Galectin-3 [13]): 3.3 nM
Kd (Galectin-3 [14]): 3.2 nM
Kd (Galectin-3 [15]): 2.9 nM
Kd (Galectin-3 [16]): 2.6 nM
Kd (Galectin-3 [17]): 2.5 nM
IC50 (Galectin-3 [18]): 1.63 µg/mL and 1.43 µg/mL
Kd (Galectin-3 [19]): 2.4 nM
IC50 (Galectin-3 [20]): 2.5 µg/mL
B1: TB006 (antibody, human IgG4 S228P, kappa, V domains shown)
VH: QVQLVQSGAEVKKPGASVKVSCKASGYSFTNYYMHWVRQAPGQRLEWMGWIYPGSGNTNYNEKFQGRVTITADTSASTAYMELSSLRSEDTAVYYCSTAPGGFDVWGQGTTVTVSS
VL: DIVMTQTPLSLSVTPGQPASISCKSSKSLLHSDGITYLYWYLQKPGQSPQLLIYRMSNLASGVPDRFSGSGSGTDFTLKISRVEAEDVGVYYCAQMLEFPLTFGQGTKLEIKR
notes: Tested as formulated drug substance or drug product in 20 mM L-histidine, 5 mM methionine, 100 mM NaCl, 0.02% polysorbate 80, pH 5.8, or diluted in 0.9% saline; also called 4A11.H3L1; IMT006a

Kd (Galectin-3 (Gal3) [21]): 3.9 nM
Kd (Galectin-3 (Gal3) [22]): 2.7 nM
Kd (Galectin-3 (Gal3) [23]): 1.9 nM
Kd (Galectin-3 (Gal3) [24]): 2.6 nM
Kd (Galectin-3 (Gal3) [25]): 3.6 nM
Kd (Galectin-3 (Gal3) [26]): 3.9 nM
Kd (Galectin-3 (Gal3) [27]): 3.1 nM
Kd (Galectin-3 (Gal3) [28]): 2.1 nM
Kd (Galectin-3 (Gal3) [29]): 2.8 nM
Kd (Galectin-3 (Gal3) [30]): 3.7 nM
Kd (Galectin-3 (Gal3) [31]): 3.1 nM
Kd (Galectin-3 (Gal3) [32]): 2.7 nM
Kd (Galectin-3 (Gal3) [33]): 2.7 nM
B2: TB006 (antibody, human IgG4 S228P, kappa, V domains shown)
VH: QVQLVQSGAEVKKPGASVKVSCKASGYSFTNYYMHWVRQAPGQRLEWMGWIYPGSGNTNYNEKFQGRVTITADTSASTAYMELSSLRSEDTAVYYCSTAPGGFDVWGQGTTVTVSS
VL: DIVMTQTPLSLSVTPGQPASISCKSSKSLLHSDGITYLYWYLQKPGQSPQLLIYRMSNLASGVPDRFSGSGSGTDFTLKISRVEAEDVGVYYCAQMLEFPLTFGQGTKLEIKR
notes: Full antibody tested as drug substance (DS) in 20 mM L-histidine, 5 mM methionine, 100 mM NaCl, 0.02% polysorbate-80, pH 5.8; also called 4A11.H3L1; IMT006a
